System: MS2 coat protein
Assay: apparent KD of MS2 coat protein; higher = weaker reporter binding
Conditions: Eterna round: R107
Procedure: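 RNA-MaP round R107: designed RNA switches with theophylline, tryptophan, arginine or FMN aptamers are transcribed on-chip within common flanks. They are titrated with SNAP-549-labelled MS2 coat protein in RNA-MaP buffer (100 mM Tris pH 7.5, 80 mM KCl, 4 mM MgCl2), without ligand or with the indicated ligand. Median apparent KD per design.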

[1] = input ligand: theophylline 20 uM
[2] = input ligand: theophylline 2 mM
[3] = input ligand: tryptophan 2.4 mM

Row | Sequence | apparent KD of MS2 coat protein (input ligand: arginine 13.2 mM) | apparent KD of MS2 coat protein (input ligand: none) | apparent KD of MS2 coat protein [1] | apparent KD of MS2 coat protein [2] | apparent KD of MS2 coat protein [3]
1 | ACACAUGAUAGAAGGAGCGCAAUGAACACACAUGAGGAUCACCCAUGUUUUUUUUGUGUUUUGCAGGUAGGUCGCUAACAUGAGG [Same State Arginine B 4] | 11 nM | 8.66 nM | 23.6 nM | 11 nM | 8.32 nM
2 | ACACGAGGAUCACCCGUGUCAUGUGGUGAUACCAGUUUACAUGAGAACCCUUGGCAGCAUAACAACAUGAGGAUCACCCAUGUCA [Same State - Theophylline A #1] | 24.4 nM | – | 40.4 nM | – | 35 nM
3 | ACAUCCAGAUUAAUCGUGGGCAUACUCGAUACCAGUAUUUUAACCUACCCUUGGCAGCGACAUGAGGAUCACCCAUGUGAGAUGA [XTheo A #10] | 21.4 nM | – | 25.2 nM | – | 23.8 nM
4 | ACAUGAAGAACAGCGGUGGGCGCGCUCGAUACCAGUAUUUUAAACUACCCUUGGCAGCGACAUGAGGAUCACCCAUGUGAGAUGA [XTheo A #6] | 16.9 nM | – | 21.8 nM | – | 19.5 nM
5 | ACAUGAGGAUCACCCAUGUAAAUAGCGGAAGGAGCGUGCAAAAGCACAGGUAGGUCGCCGAUAUAAUAAUUGGGUAAUAUAUUAU [#27 Exclusion - Arginine A] | 17.7 nM | 39.1 nM | 24.6 nM | 26.2 nM | 26.9 nM
6 | ACAUGAGGAUCACCCAUGUAACGGCAUAAUCGAGGACCGGUACGGCCGCCACUCGGAAUCAGUGACAGGCAUAUUUAUUAUAAGA [Eclusion - Tryptophan A / A] | 12 nM | – | 15.6 nM | 11.5 nM | –
7 | ACAUGAGGAUCACCCAUGUAAGAUUCAGAAGGAGCGGGAAAUAACCCAGGUAGGUCGCUGAAGUUUGGUUUAUUGUGUUCGUGAA [#07 Exclusion - Arginine A] | 10.2 nM | 10.4 nM | 13.3 nM | 11.5 nM | 11.5 nM
8 | ACAUGAGGAUCACCCAUGUCAUGAGGUUCACGAGGACCGGUACGGCCGCCACUCGACAUGAGGGUCACCCGUGAACGGAACACCC [kpmullin] | 14.7 nM | – | 23.6 nM | 17.7 nM | –
9 | ACAUGAGGAUCACCCAUGUCUGCCACUGAUACCAGCGGAAGCCCACGCCCUUGGCAGCAGAACAUGAGGAUCACCCAUGUAGGCU [Same State Theophylline A GF28] | 55.8 nM | – | 186 nM | – | 201 nM
10 | ACAUGAGGAUCACCCAUGUGAAGCAGGGUACGAGGACCGGUACGGCCGCCACUCGAACAUUAUAACGAGUGAAUGGCAACGAUGU [B15Jan] | 15.7 nM | – | 18.5 nM | 13.8 nM | –
11 | ACAUGAGGAUCACCCAUGUGAAGGCACGAUACCAGCUGAUCCCGUGGCCCUUGGCAGCGUCACGUUUGGUCCCGCGGAUGAGACG [crcmullin] | 20.8 nM | 14.2 nM | 21.5 nM | 17 nM | 13.8 nM
12 | ACAUGAGGAUCACCCAUGUUCCUCAUUGAUACCAGUGAAUUUAGACGCCCUUGGCAGCGAGUUUUUGAAGAAGAAGUUUUUUUUU [6.D] | 235 nM | – | 731 nM | – | 1080 nM
13 | ACAUGAGGAUCACCCAUGUUCCUCAUUGAUACCAGUGAAUUUAGACGCCCUUGGCAGCGAGUUUUUUAAGAAGAAGUUUUUUUUU [6.E] | 551 nM | – | 793 nM | – | 992 nM
14 | ACAUGAGGAUCACCCAUGUUCCUCUUUGAUACCAGUGAGUUGUUUCGCCCUUGGCAGCGAGUUUUUUUUUUUUUGUUUUGUUUGG [6.R] | 173 nM | – | 351 nM | – | 264 nM
15 | ACCUGUACGAAAAGUGCAGGACACGGAAUACGAGGACCGGUACGGCCGCCACUCGGAAUAAACCUGAGGAUCACCCUGGUCCGUG [TrypAS 9 #AlternativeMS2 #Zipper #StaticStem] | 26.8 nM | 25.1 nM | 39.1 nM | 34.4 nM | 32.2 nM
16 | ACGUCACGUUUACUCGUGGUUUCGAUCGAUACCAGUAGCGAGAGUUACCCUUGGCAGCGACAUGAGGAUCACCCAUGUACGAAGA [XTheo A #25] | 10.8 nM | – | 14.5 nM | – | 12 nM
17 | ACGUCCGGGUUAAUCGUGGGCAUGGUCGAUACCAGUAUUUUAAUCUACCCUUGGCAGCGACAUGAGGAUCACCCAUGUGCGAUGA [XTheo A #17] | 15.5 nM | – | 22.8 nM | – | 17 nM

Row | Sequence | apparent KD of MS2 coat protein (input ligand: arginine 13.2 mM) | apparent KD of MS2 coat protein (input ligand: none) | apparent KD of MS2 coat protein [1] | apparent KD of MS2 coat protein [2] | apparent KD of MS2 coat protein [3]
18 | ACGUCGCAUAGGAAAACUAUGUGACGAAAUCGAGGACCGGUACGGCCGCCACUCGUCCUCAACAUGAGGAUCACCCAUGUAAUAA [Mat - Exclusion - Trytophan A - D7] | 19.3 nM | – | 23.3 nM | 22.3 nM | –
19 | ACUAGUUGUGCAGAUACCAGACACGAGGAUCACCCGUGUUUGGGAUGUUCGCAUCUUCCUGUCCCUUGGCAGCUGUACAUCUAGA [Omei Theo B Exc v8] | 15.8 nM | 15.1 nM | 23.5 nM | 221 nM | 17 nM
20 | ACUGGAGGUGGAAGGAGCGGGAGACAUGAGCAUCACAUGAGGAUCACCCAUGUAGGAUCAUCCCAGGUAGGUCGCCAUGUCGAAA [rtfemullin] | 120 nM | 276 nM | 292 nM | 431 nM | 189 nM
21 | AGAAUAACACAUGAGGAUCACCCAUGUGAUACCAGCUAGGAAACUAGCCCUUGGCAGCACAUAAGGUGAUCCAGCUGCCAAGAAU [(M1)-(M2)-(T1)-(T2)-(M)'-(T)'_Design1_2/19/17] | 65.2 nM | – | 175 nM | – | 102 nM
22 | AGACACAUGAGGAUCACCCAUGUACACGAGCGAGGACCGGUACGGCCGCCACUCGUCCAAGCAACUAAUGAGACUCGUAAGAUGG [theeternabot_sameState_MS2_Trp_A_5] | 17.1 nM | – | 31.6 nM | 23.4 nM | –
23 | AGACAUGAGGAUCACCCAUGUAGCAUGGAUACCAGAUCCAGAUUUAUCCCUUGGCAGCUGUGGUACAGUGAUGGAUUGCUCCUAG [Exclusion - Theophylline A (Freestyle 8)] | 46.3 nM | – | 93.6 nM | – | 61.9 nM
24 | AGACAUGAGGAUCACCCAUGUAGCAUGGAUACCAGAUGUAGAUUUAUCCCUUGGCAGCUGUGGUAAAGUGAUGCAUUGCUCCUAG [Exclusion - Theophylline A (Freestyle 5)] | 28.5 nM | – | 50.1 nM | – | 34 nM
25 | AGACUUCGCAUAGGAAAACUAUGUGAAGUCCGAGGACCGGUACGGCCGCCACUCGUCCUCAACAUGAGGAUCACCCAUGUAAUAA [#OpenEnded #CuTurnoff #Tail] | 21.1 nM | – | 26 nM | 23.5 nM | –
26 | AGAGCAUUGACGGCCGCCACUCAUGUCACAUGAGGAUCACCCAUGUGAUGGGUAAUUGCCCGGUUGAGGACCGGGUCAAUGCUCA [Omei Tryp SS B v4] | 5.88 nM | 8.32 nM | 11.3 nM | 10.1 nM | 9.74 nM
27 | AGAGCAUUGACGGCCGCCACUCAUGUCACAUGAGGAUCACCCAUGUGAUGGGUGAUAGCCCGGUUGAGGACCGGGUCAAUGCUCA [Omei Tryp SS B v1] | 18.4 nM | – | 25.3 nM | 20.4 nM | –
28 | AGAGCAUUGACGGCCGCCACUCGUGUCACAUGAGGAUCACCCAUGUGAUGGGUGAUAGCCCGGUUGAGGACCGGGUCAAUGCUCA [Omei Tryp SS B v7] | 13.1 nM | – | 16.8 nM | 16.2 nM | –
29 | AGAGUCAGACAAAAGUCUGGCUCAGCCGAAGGAGCGUCCGAAAGGACAGGUAGGUCGCGGUUACAUGAGGAUCACCCAUGUUCCU [ArgAS 7 #OpenEnded] | 66.8 nM | 136 nM | 177 nM | 184 nM | 145 nM
30 | AGAUGCCACUGUGGAUAGCACGAUGCCGAUACCAGCUAGGAAACUAGCCCUUGGCAGCGGUACAUGAGGAUCACCCAUGUAUCCU [EThA NP+V+V2 #9] | 12.2 nM | – | 18.3 nM | – | 12.9 nM
31 | AGAUUCGACACGGCCGCCACUUUCAGUGGCUGGUGUCAUGGUGCACAUGAGGAUCACCCAUGUGGAAGGACCGGGUGUUGAGUCU [XTryp B #26] | 12.3 nM | – | 21.8 nM | 17.2 nM | –
32 | AGCAACAAGUCGGCCGCCACUCAAUAAACAUGAGGAUCACCCAUGUAAAUAACAUGAUAAUAAUAGAGGACCGGGACAGUUGCAU [JR_SSTryptoB_Sub015] | 13 nM | – | 17.1 nM | 15.1 nM | –
33 | AGCACGGUGAUGGUAGCCGGACGCUAAGUACGAGGACCGGUACGGCCGCCACUCGGAGUCCUACGACAUGAGGAUCACCCAUGUA [Same State Trp A GF12] | 34.3 nM | 34.9 nM | 50 nM | 42.6 nM | 33.6 nM

Source: the supplement of paper PMC9170038
